Measurements as given in publication PMC3504009 (PLoS ONE, 2012).

Target: T1, YscUCC, C-terminal polypeptide of the cleaved cytosolic domain YscUC of YscU, wild type (Y. pseudotuberculosis, UniProt P69987 264-354)
T1 sequence: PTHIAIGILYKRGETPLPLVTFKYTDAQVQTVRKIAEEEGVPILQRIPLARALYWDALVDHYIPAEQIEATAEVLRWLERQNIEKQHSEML
Experiment: circular dichroism, dissociation kinetics
Conditions: both partners purified

B1: YscUCN, N-terminal cytoplasmic polypeptide of the cleaved cytosolic domain YscUC of YscU (domain or fragment)
chain: IKELKMSKDEIKREYKEMEGSPEIKSKRRQFHQEIQSRNMRENVKRSSVVVAN
  binding result: binds
